Experiments:
Assay in all cases: BLI
[1] = target: T1, programmed death-ligand 1 (PD-L1), soluble, as used in BLI (UniProt Q9NZQ7 19-238)
T1 construct: extracellular domain; also called PD-L1-ECD

CD16 = target: T2, CD16 (UniProt P08637 17-208)
T2 construct: also called Fcγ-receptor IIIa

[2] = target: T3, epidermal growth factor receptor (EGFR), soluble, as used in BLI (UniProt P00533 25-645)
T3 construct: extracellular domain; also called EGFR-ECD

T1 sequence (Q9NZQ7 19-238): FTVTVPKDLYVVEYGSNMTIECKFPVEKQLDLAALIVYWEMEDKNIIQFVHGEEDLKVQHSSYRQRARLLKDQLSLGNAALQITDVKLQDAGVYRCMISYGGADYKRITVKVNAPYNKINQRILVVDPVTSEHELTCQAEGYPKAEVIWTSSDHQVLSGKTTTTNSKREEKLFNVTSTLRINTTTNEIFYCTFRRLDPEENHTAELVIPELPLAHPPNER
T2 sequence (P08637 17-208): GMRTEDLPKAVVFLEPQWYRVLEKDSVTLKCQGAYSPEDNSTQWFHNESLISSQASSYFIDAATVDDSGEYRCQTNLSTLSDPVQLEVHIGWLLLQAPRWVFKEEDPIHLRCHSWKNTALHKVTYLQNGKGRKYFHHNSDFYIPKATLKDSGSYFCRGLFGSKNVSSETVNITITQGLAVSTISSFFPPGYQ

Binder | Kd (CD16) [nM] | Kd [2] [nM] | Kd [1] [nM]
ICI2_outer and NKE14_inner trispecific variant V2 (bispecific antibody, human IgG1, lambda, L234A L235A, Two Fabs on each side, common light chain LCE; also called ICI2_outer Fab) heavy: not shown light: ALTQPSSVSANLGETVKITCSGGAYSDCGWYQQKSPGSAPVTVIYYNDKRPSDIPSRFSGSTFGSTATLTITGVQAEDEAVYYCGGYDSRTGYVGVFGAGTTLTVLGQPKANPTVTLFPPSSEELQANKATLVCLISDFYPGAVTVAWKADGSPVKAGVETTKPSKQSNNKYAASSYLSLTPEQWKSHRSYSCQVTHEGSTVEKTVAPTECS | 382 | 460 | 97.6
one-armed ICI2_outer and NKE14_inner variant V3 (bispecific antibody, human IgG1, lambda, L234A L235A, also called oaICI2_outer) heavy 1: AVTLDESGGGLQTPGGALSLVCKASGFDFSSYDMAWVRQAPGKGLEWVAGIKSNGPWTNYGAAVKGRATISRDNGQSTVRLQLNNLRAEDTAIYYCAKPGAGYVGWDAAGTIDSWGHGTEVIVSSASTKGPSVFPLAPSSKSTSGGTAALGCLVKDYFPEPVTVSWNSGALTSGVHTFPAVLQSSGLYSLSSVVTVPSSSLGTQTYICNVNHKPSNTKVDKRVEPKSCDGGGGSGGGGSAVTLDESGGGLQTPGGGLSLVCKGSGFTFSSYNMGWVRQAPGKGLEFVASIDDDGSFTHYGAAVKGRATISRDNGQSTVRLQLNNLRVEDSGIYYCAKSSINGYRCSGGLCVPYITGNIDAWGHGTEVIVSSASTKGPSVFPLAPSSKSTSGGTAALGCLVKDYFPEPVTVSWNSGALTSGVHTFPAVLQSSGLYSLSSVVTVPSSSLGTQTYICNVNHKPSNTKVDKRVEPKSCDKTHTCPPCPAPEAAGGPSVFLFPPKPKDTLMISRTPEVTCVVVDVSHEDPEVKFNWYVDGVEVHNAKTKPREEQYNSTYRVVSVLTVLHQDWLNGKEYKCKVSNKALPAPIEKTISKAKGQPREPQVYTLPPSREEMTKNQVSLWCLVKGFYPSDIAVEWESNGQPENNYKTTPPVLDSDGSFFLYSKLTVDKSRWQQGNVFSCSVMHEALHNHYTQKSLSLSPG heavy 2: EPKSCDKTHTCPPCPAPEAAGGPSVFLFPPKPKDTLMISRTPEVTCVVVDVSHEDPEVKFNWYVDGVEVHNAKTKPREEQYNSTYRVVSVLTVLHQDWLNGKEYKCKVSNKALPAPIEKTISKAKGQPREPQVYTLPPSREEMTKNQVSLSCAVKGFYPSDIAVEWESNGQPENNYKTTPPVLDSDGSFFLVSKLTVDKSRWQQGNVFSCSVMHEALHNRFTQKSLSLSPG light: ALTQPSSVSANLGETVKITCSGGAYSDCGWYQQKSPGSAPVTVIYYNDKRPSDIPSRFSGSTFGSTATLTITGVQAEDEAVYYCGGYDSRTGYVGVFGAGTTLTVLGQPKANPTVTLFPPSSEELQANKATLVCLISDFYPGAVTVAWKADGSPVKAGVETTKPSKQSNNKYAASSYLSLTPEQWKSHRSYSCQVTHEGSTVEKTVAPTECS | 346 | 763 | 115
one-armed NKE14_outer and ICI2_inner variant V5 (bispecific antibody, human IgG1, lambda, L234A L235A, also called oaNKE14_outer) heavy 1: AVTLDESGGGLQTPGGGLSLVCKGSGFTFSSYNMGWVRQAPGKGLEFVASIDDDGSFTHYGAAVKGRATISRDNGQSTVRLQLNNLRVEDSGIYYCAKSSINGYRCSGGLCVPYITGNIDAWGHGTEVIVSSASTKGPSVFPLAPSSKSTSGGTAALGCLVKDYFPEPVTVSWNSGALTSGVHTFPAVLQSSGLYSLSSVVTVPSSSLGTQTYICNVNHKPSNTKVDKRVEPKSCDGGGGSGGGGSAVTLDESGGGLQTPGGALSLVCKASGFDFSSYDMAWVRQAPGKGLEWVAGIKSNGPWTNYGAAVKGRATISRDNGQSTVRLQLNNLRAEDTAIYYCAKPGAGYVGWDAAGTIDSWGHGTEVIVSSASTKGPSVFPLAPSSKSTSGGTAALGCLVKDYFPEPVTVSWNSGALTSGVHTFPAVLQSSGLYSLSSVVTVPSSSLGTQTYICNVNHKPSNTKVDKRVEPKSCDKTHTCPPCPAPEAAGGPSVFLFPPKPKDTLMISRTPEVTCVVVDVSHEDPEVKFNWYVDGVEVHNAKTKPREEQYNSTYRVVSVLTVLHQDWLNGKEYKCKVSNKALPAPIEKTISKAKGQPREPQVYTLPPSREEMTKNQVSLWCLVKGFYPSDIAVEWESNGQPENNYKTTPPVLDSDGSFFLYSKLTVDKSRWQQGNVFSCSVMHEALHNHYTQKSLSLSPG heavy 2: EPKSCDKTHTCPPCPAPEAAGGPSVFLFPPKPKDTLMISRTPEVTCVVVDVSHEDPEVKFNWYVDGVEVHNAKTKPREEQYNSTYRVVSVLTVLHQDWLNGKEYKCKVSNKALPAPIEKTISKAKGQPREPQVYTLPPSREEMTKNQVSLSCAVKGFYPSDIAVEWESNGQPENNYKTTPPVLDSDGSFFLVSKLTVDKSRWQQGNVFSCSVMHEALHNRFTQKSLSLSPG light: ALTQPSSVSANLGETVKITCSGGAYSDCGWYQQKSPGSAPVTVIYYNDKRPSDIPSRFSGSTFGSTATLTITGVQAEDEAVYYCGGYDSRTGYVGVFGAGTTLTVLGQPKANPTVTLFPPSSEELQANKATLVCLISDFYPGAVTVAWKADGSPVKAGVETTKPSKQSNNKYAASSYLSLTPEQWKSHRSYSCQVTHEGSTVEKTVAPTECS | 342 | 982 | 137
NKE14_outer and ICI2_inner trispecific variant V4 (bispecific antibody, human IgG1, lambda, L234A L235A, Two Fabs on each side, common light chain LCE; also called NKE14_outer Fab) heavy: not shown light: ALTQPSSVSANLGETVKITCSGGAYSDCGWYQQKSPGSAPVTVIYYNDKRPSDIPSRFSGSTFGSTATLTITGVQAEDEAVYYCGGYDSRTGYVGVFGAGTTLTVLGQPKANPTVTLFPPSSEELQANKATLVCLISDFYPGAVTVAWKADGSPVKAGVETTKPSKQSNNKYAASSYLSLTPEQWKSHRSYSCQVTHEGSTVEKTVAPTECS | 302 | 603 | 125

Binders with a lower Kd (CD16), results first:

Kd (CD16) [nM] | Kd [2] [nM] | Binder | Kd [1] [nM]
277 | 570 | Knob-into-Hole (KiH) trispecific variant V1: HCP-LCE on one side and heavy chain of CD16 binder NKE14, paired with the HCP-LCE light chain (bispecific antibody, human IgG1, lambda, L234A L235A, Trispecific (EGFR, PD-L1, CD16)) heavy 1: AVTLDESGGGLQTPGGALSLVCKASGFDFSSYDMAWVRQAPGKGLEWVAGIKSNGPWTNYGAAVKGRATISRDNGQSTVRLQLNNLRAEDTAIYYCAKPGAGYVGWDAAGTIDSWGHGTEVIVSSASTKGPSVFPLAPSSKSTSGGTAALGCLVKDYFPEPVTVSWNSGALTSGVHTFPAVLQSSGLYSLSSVVTVPSSSLGTQTYICNVNHKPSNTKVDKRVEPKSCDKTHTCPPCPAPEAAGGPSVFLFPPKPKDTLMISRTPEVTCVVVDVSHEDPEVKFNWYVDGVEVHNAKTKPREEQYNSTYRVVSVLTVLHQDWLNGKEYKCKVSNKALPAPIEKTISKAKGQPREPQVYTLPPSREEMTKNQVSLWCLVKGFYPSDIAVEWESNGQPENNYKTTPPVLDSDGSFFLYSKLTVDKSRWQQGNVFSCSVMHEALHNHYTQKSLSLSPG heavy 2: AVTLDESGGGLQTPGGGLSLVCKGSGFTFSSYNMGWVRQAPGKGLEFVASIDDDGSFTHYGAAVKGRATISRDNGQSTVRLQLNNLRVEDSGIYYCAKSSINGYRCSGGLCVPYITGNIDAWGHGTEVIVSSASTKGPSVFPLAPSSKSTSGGTAALGCLVKDYFPEPVTVSWNSGALTSGVHTFPAVLQSSGLYSLSSVVTVPSSSLGTQTYICNVNHKPSNTKVDKRVEPKSCDKTHTCPPCPAPEAAGGPSVFLFPPKPKDTLMISRTPEVTCVVVDVSHEDPEVKFNWYVDGVEVHNAKTKPREEQYNSTYRVVSVLTVLHQDWLNGKEYKCKVSNKALPAPIEKTISKAKGQPREPQVYTLPPSREEMTKNQVSLSCAVKGFYPSDIAVEWESNGQPENNYKTTPPVLDSDGSFFLVSKLTVDKSRWQQGNVFSCSVMHEALHNRFTQKSLSLSPG light: ALTQPSSVSANLGETVKITCSGGAYSDCGWYQQKSPGSAPVTVIYYNDKRPSDIPSRFSGSTFGSTATLTITGVQAEDEAVYYCGGYDSRTGYVGVFGAGTTLTVLGQPKANPTVTLFPPSSEELQANKATLVCLISDFYPGAVTVAWKADGSPVKAGVETTKPSKQSNNKYAASSYLSLTPEQWKSHRSYSCQVTHEGSTVEKTVAPTECS | 104
151 |  | NKE14 + LCE comparative mAb (CD16-binding antibody NKE14 heavy chain with LCE light chain) (antibody, LCE is the HCP-LCE light chain) VH: AVTLDESGGGLQTPGGGLSLVCKGSGFTFSSYNMGWVRQAPGKGLEFVASIDDDGSFTHYGAAVKGRATISRDNGQSTVRLQLNNLRVEDSGIYYCAKSSINGYRCSGGLCVPYITGNIDAWGHGTEVIVSS light: ALTQPSSVSANLGETVKITCSGGAYSDCGWYQQKSPGSAPVTVIYYNDKRPSDIPSRFSGSTFGSTATLTITGVQAEDEAVYYCGGYDSRTGYVGVFGAGTTLTVLGQPKANPTVTLFPPSSEELQANKATLVCLISDFYPGAVTVAWKADGSPVKAGVETTKPSKQSNNKYAASSYLSLTPEQWKSHRSYSCQVTHEGSTVEKTVAPTECS | 

From US20250163161A1 (TECHNISCHE UNIVERSIT T DARMSTADT, published 2025)
